Assay results: doi:10.64898/2025.12.10.693372 (bioRxiv, 2025)

B1: ZL58 Fab (Fab, V domains shown)
VH: QLELVQSGGGLVQPGGSLRLSCAASEIAVSRNYMNWVRQGPGKGLEWVSIIYPGGSTFYADSVKGRFTISTDDSKNTLYLQMDSLSTDDTALYYCARQGPNGRNDFWGQGTLVTVSS
VL: DIQMTQSPSSLSASAGERVTITCQASQDINMYLNWYQQKPGKAPKLLIYDASNLETGVPSRFSGSGSVTEFTFTISSLQPEDIGTYYCHQYDSFPPTFGGGTKVDLK
B2: ZL525 Fab (Fab, V domains shown)
V domain 1: QVQLVQSGAEVKKPGSSMKVSCQASGGTFSSHPISWIRQAPGQGLEWMGRIIPIAGMTDYGQKFQGRITITADTSTSTSYVELRGLRSQDTAFYYCAKDVGYSDYGSAYYFHTWGQGTLITVSS
V domain 2: QSVLTQPPSVSGAPGQRVTISCTGSNSNIGAGYDVHWYQQLPGTAPKLLIYRNNKRPSGVPDRFSGSKSDTSASLAITGLQAEDEAHYYCQSFDSSLGGSLFGGGTKLAVL
B3: R102-9 Fab (Fab, V domains shown)
VH: EVQLVESGGGLVQPGGSLRLSCAASGIIVSRNYMSWVRQAPGKRPEWVSLIYPGGSTFYADSVKGRFTISRDNSKNMLFLQMNSLRAEDTAVYYCARDLTIRGEASWGQGTLVTVSS
VL: EIVMTQSPATLSVSPGERATLSCRASQSFNSNLAWYQQKPGQAPRLLIYGASTRATGIPARFSGSGSGTEFTLTISSLQSEDFAVYYCQQYGDWPLWTFGQGTKVEIK
B4: C092 Fab (Fab, V domains shown)
VH: QVQLVQSGAEVKKPGSSVKVSCKASGGSFTNHFISWVRQAPGQGLEWMGRIIPILGTANYAQNFQGRVMMTADKSTSTAYMELSSLRSEDTAVYYCARDSGYSGYGSTYYMDVWGKGTTVTVSS
VL: QSVLTQPPSVSGAPGQRVTISCTGSNSNIGAGYDVHWYQQLPGAAPKLLIYGNNNRPSGVPDRFSGSKSDTSASLAITGLQVEDEADYYCQSYDSSLSDSVFGSGTKVTVL

Tests used:
[1] = biological target: T1, SARS-CoV-2 Omicron LP.8.1 spike (S-6P) (SARS-CoV-2 Omicron LP.8.1, S-GSAS/6P (furin cleavage site, residues 682–685) | F817P | A892P | A899P | …); experiment: cryo-EM structure; settings: both partners purified
T1 construct: also called LP.8.1 S-6P; Omicron LP.8.1.1 spike (S-6P)

[2] = biological target: T2, SARS-CoV-2 Omicron JD.1.1 spike (S-6P) (SARS-CoV-2 Omicron JD.1.1, S-GSAS/6P (furin cleavage site, residues 682–685) | F817P | A892P | A899P | …); experiment: cryo-EM structure; settings: both partners purified
T2 construct: also called JD.1.1 S-6P; Omicron JD.1.1 S-trimer (S-6P)

| Binder | stoichiometry N [1] | stoichiometry N [2] |
| --- | --- | --- |
| B1 | 3 Fabs per S-trimer |  |
| B2 | 3 Fabs per S-trimer |  |
| B3 |  | 3 Fabs per S-trimer |
| B4 |  | 3 Fabs per S-trimer |
